Measurements: PMC10397247
Each block holds one binder with its values, some of them ahead of it.

Experiments:
[1] = molecular target: T1, 4H2143-bN; test: two-hybrid library CCNG1;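 note: natural log of median RNA to DNA barcode read ratio; higher means stronger binding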
T1 chain: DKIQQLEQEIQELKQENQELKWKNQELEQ

[2] = molecular target: T2, 4H2717-bN; test: two-hybrid library CCNG1;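 note: natural log of median RNA to DNA barcode read ratio; higher means stronger binding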
T2 chain: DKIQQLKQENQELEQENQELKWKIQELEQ

[3] = molecular target: T3, 4H40-bN; test: two-hybrid library CCNG1;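 note: natural log of median RNA to DNA barcode read ratio; higher means stronger binding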
T3 chain: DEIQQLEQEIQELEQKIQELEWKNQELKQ

[4] = molecular target: T4, 4H908-bN; test: two-hybrid library CCNG1;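 note: natural log of median RNA to DNA barcode read ratio; higher means stronger binding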
T4 chain: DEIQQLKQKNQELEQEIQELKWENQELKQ

[5] = molecular target: T5, 4H2473-bN; test: two-hybrid library CCNG1;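 note: natural log of median RNA to DNA barcode read ratio; higher means stronger binding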
T5 chain: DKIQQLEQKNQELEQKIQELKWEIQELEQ

[6] = molecular target: T6, 4H3057-bN; test: two-hybrid library CCNG1;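 note: natural log of median RNA to DNA barcode read ratio; higher means stronger binding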
T6 chain: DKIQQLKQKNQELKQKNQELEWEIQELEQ

[7] = molecular target: T7, 4H319-bN; test: two-hybrid library CCNG1
T7 chain: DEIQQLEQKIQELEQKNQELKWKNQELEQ

[8] = molecular target: T8, 4H2134-bN; test: two-hybrid library CCNG1
T8 chain: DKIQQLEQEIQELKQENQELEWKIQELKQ

[9] = molecular target: T9, 4H741-bN; test: two-hybrid library CCNG1
T9 chain: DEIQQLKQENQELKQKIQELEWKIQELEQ

[10] = molecular target: T10, 4H2438-bN; test: two-hybrid library CCNG1
T10 chain: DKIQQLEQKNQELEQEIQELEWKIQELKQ

[11] = molecular target: T11, 4H3277-bN; test: two-hybrid library CCNG1
T11 chain: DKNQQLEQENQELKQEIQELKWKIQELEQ

[12] = molecular target: T12, 4H2588-bN; test: two-hybrid library CCNG1
T12 chain: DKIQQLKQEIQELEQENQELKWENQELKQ

[13] = molecular target: T13, 4H182-bN; test: two-hybrid library CCNG1
T13 chain: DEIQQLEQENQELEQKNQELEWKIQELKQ

[14] = molecular target: T14, 4H2915-bN; test: two-hybrid library CCNG1
T14 chain: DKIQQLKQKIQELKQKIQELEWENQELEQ

[15] = molecular target: T15, 4H492-bN; test: two-hybrid library CCNG1
T15 chain: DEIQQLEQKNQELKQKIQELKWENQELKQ

[16] = molecular target: T16, 4H2223-bN; test: two-hybrid library CCNG1
T16 chain: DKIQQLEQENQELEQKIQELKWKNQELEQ

[17] = molecular target: T17, 4H2692-bN; test: two-hybrid library CCNG1
T17 chain: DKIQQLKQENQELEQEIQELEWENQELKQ

[18] = molecular target: T18, 4H462-bN; test: two-hybrid library CCNG1
T18 chain: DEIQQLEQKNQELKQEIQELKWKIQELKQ

[19] = molecular target: T19, 4H348-bN; test: two-hybrid library CCNG1
T19 chain: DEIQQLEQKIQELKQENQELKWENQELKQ

[20] = molecular target: T20, 4H575-bA; test: two-hybrid library CCNG1
T20 chain: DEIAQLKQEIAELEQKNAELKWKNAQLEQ

[21] = molecular target: T21, 4H477-bN; test: two-hybrid library CCNG1
T21 chain: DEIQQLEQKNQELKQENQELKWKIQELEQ

[22] = molecular target: T22, 4H2503-bN; test: two-hybrid library CCNG1
T22 chain: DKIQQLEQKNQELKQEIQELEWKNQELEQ

[23] = molecular target: T23, 4H2839-bN; test: two-hybrid library CCNG1
T23 chain: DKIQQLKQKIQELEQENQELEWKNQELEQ

[24] = molecular target: T24, P5SC2; test: two-hybrid library CC1; details: mean of both orientations
T24 chain: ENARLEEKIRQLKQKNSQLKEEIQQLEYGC

[25] = molecular target: T25, P7; test: two-hybrid library CC1; details: mean of both orientations
T25 chain: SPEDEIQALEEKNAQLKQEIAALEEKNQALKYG

[26] = molecular target: T26, P12; test: two-hybrid library CC1; details: mean of both orientations
T26 chain: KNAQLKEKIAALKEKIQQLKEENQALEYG

[27] = molecular target: T27, P4; test: two-hybrid library CC1; details: mean of both orientations
T27 chain: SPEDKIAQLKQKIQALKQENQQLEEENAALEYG

[28] = molecular target: T28, P6SC1; test: two-hybrid library CC1; details: mean of both orientations
T28 chain: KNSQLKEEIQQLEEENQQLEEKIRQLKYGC

[29] = molecular target: T29, P11; test: two-hybrid library CC1
T29 chain: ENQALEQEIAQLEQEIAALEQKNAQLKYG

[30] = molecular target: T30, P3; test: two-hybrid library CC1; details: mean of both orientations
T30 chain: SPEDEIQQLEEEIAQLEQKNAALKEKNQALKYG

[31] = molecular target: T31, P7mS; test: two-hybrid library CC1; details: mean of both orientations
T31 chain: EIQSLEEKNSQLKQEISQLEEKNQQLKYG

[32] = molecular target: T32, P8; test: two-hybrid library CC1; details: mean of both orientations
T32 chain: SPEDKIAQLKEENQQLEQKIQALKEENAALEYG

[33] = molecular target: T33, P5SC1; test: two-hybrid library CC1; details: mean of both orientations
T33 chain: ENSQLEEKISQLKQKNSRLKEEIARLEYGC

[34] = molecular target: T34, P8mS; test: two-hybrid library CC1; details: mean of both orientations
T34 chain: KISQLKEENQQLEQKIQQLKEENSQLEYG

[35] = molecular target: T35, P6mS; test: two-hybrid library CC1; details: mean of both orientations
T35 chain: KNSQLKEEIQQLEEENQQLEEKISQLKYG

[36] = molecular target: T36, P4mS; test: two-hybrid library CC1; details: mean of both orientations
T36 chain: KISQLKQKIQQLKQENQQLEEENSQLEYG

[37] = molecular target: T37, P5; test: two-hybrid library CC1; details: mean of both orientations
T37 chain: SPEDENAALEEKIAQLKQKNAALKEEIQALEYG

[38] = molecular target: T38, P5mS; test: two-hybrid library CC1; details: mean of both orientations
T38 chain: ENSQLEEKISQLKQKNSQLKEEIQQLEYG

[39] = molecular target: T39, P9; test: two-hybrid library CC1; details: mean of both orientations
T39 chain: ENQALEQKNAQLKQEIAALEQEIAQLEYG

[40] = molecular target: T40, P3mS; test: two-hybrid library CC1; details: mean of both orientations
T40 chain: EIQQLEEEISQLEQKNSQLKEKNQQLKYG

[41] = molecular target: T41, P6; test: two-hybrid library CC1; details: mean of both orientations
T41 chain: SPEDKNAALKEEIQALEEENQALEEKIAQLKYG

[42] = molecular target: T42, P6SC2; test: two-hybrid library CC1; details: mean of both orientations
T42 chain: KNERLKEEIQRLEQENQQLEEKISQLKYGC

interaction score [1]: -0.437 | interaction score [2]: 0.137 | interaction score [3]: 0.0984 | interaction score [4]: -2.24 | interaction score [5]: -0.481 | interaction score [6]: 2.24 | interaction score [7]: -0.552 | interaction score [8]: -0.568 | interaction score [9]: -0.228 | interaction score [10]: -0.143 | interaction score [11]: -0.0991 | interaction score [12]: -0.916 | interaction score [13]: -0.13 | interaction score [14]: 0.186 | interaction score [15]: 0.471 | interaction score [16]: -0.0217 | interaction score [17]: 0.536 | interaction score [18]: -0.134 | interaction score [19]: -0.689 | interaction score [20]: -2.96 | interaction score [21]: -1.61 | interaction score [22]: -0.284 | interaction score [23]: 0.367
B1: 4H182-bN (peptide)
chain: DEIQQLEQENQELEQKNQELEWKIQELKQ

B2: P11 (peptide)
chain: ENQALEQEIAQLEQEIAALEQKNAQLKYG
interaction score [24]: -2.41 | interaction score [25]: -2.69 | interaction score [26]: 0.313 | interaction score [27]: -0.75 | interaction score [28]: -2.75 | interaction score [29]: -2.71 | interaction score [30]: -2.69 | interaction score [31]: -2.62 | interaction score [32]: -2.59 | interaction score [33]: -2.59 | interaction score [34]: -2.69 | interaction score [35]: -2.82 | interaction score [36]: -1.07 | interaction score [37]: -2.7 | interaction score [38]: -2.74 | interaction score [39]: -2.25 | interaction score [40]: -2.8 | interaction score [41]: -2.83 | interaction score [42]: -2.64
